Square brackets hold non-standard residues; d marks the D form. Ends that are not written are not given here. Peptide text beside a SMILES is read from it. PEG2‑C4‑alkyne‑biotin = PEG2-C4-alkyne-modified biotin; Lys(N3) = [N-]=[N+]=NCCCC[C@H](N)C(=O)O; K‑azido = azido-modified lysine
Legend:
[1] = target: GFRAL ECD (Homo sapiens) (UniProt Q6UXV0); conditions: cited from earlier work
[2] = tested on: Sprague–Dawley rats
Method: In a follow-up experiment, we evaluated responses to the gold standard antiemetic Ondansetron alone or in combination with GRASP to determine whether the combination would enhance the efficacy of the former compound in preventing CINV in rats.
All systemic treatments were delivered by intraperitoneal (IP) injection.
Rats (n = 98, 300–330 g) received IP injections of GRASP (100 nmol/kg), Ondansetron (2 mg/kg), both GRASP and Ondansetron together, or saline control […] before systemic administration of cisplatin. Six hours later, rats received a second injection of GRASP or vehicle control. Food and kaolin intake were measured at 3, 6, and 24 h postinjection.
All data were expressed as means ± SEM.

[3] = target: T1, Recombinant His-tagged human GFRAL (Ser19–Glu351) (human, UniProt Q6UXV0 19-351); experiment: SPR; biotin-GRASP immobilised on a streptavidin-coated biotin sensor (Nicoya OpenSPR); GFRAL-ECD (20, 100, 200, 600 nM), GDF15 (1 uM) or RET (0.29 uM) as analyte; HBSS pH 7.4; 1:1 fit with local Bmax (TraceDrawer); conditions: both partners purified
T1 construct: GDNF family receptor alpha-like (GFRAL), human, extracellular domain S19-E351 as defined by UniProt Q6UXV0; also called GFRAL–ECD; GFRAL (S19–E351); source: bought: ACRO Biosystems (GFA-H52H3), expressed in HEK293 cells
T1 sequence (looked up): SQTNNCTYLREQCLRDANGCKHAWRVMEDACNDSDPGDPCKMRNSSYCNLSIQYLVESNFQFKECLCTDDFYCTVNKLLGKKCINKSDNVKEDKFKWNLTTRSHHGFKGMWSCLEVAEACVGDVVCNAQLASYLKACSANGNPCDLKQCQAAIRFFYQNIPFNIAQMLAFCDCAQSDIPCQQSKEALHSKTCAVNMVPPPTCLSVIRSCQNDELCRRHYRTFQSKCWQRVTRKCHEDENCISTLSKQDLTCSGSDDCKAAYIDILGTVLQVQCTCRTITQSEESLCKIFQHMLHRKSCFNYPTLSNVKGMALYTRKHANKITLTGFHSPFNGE

[4] = target: T2, Full-length human GFRAL on stably transfected HEK293 cells (human, UniProt Q6UXV0 19-394); experiment: flow cytometry on cells; GRASPCy5 (0.1-1000 nM) in HBSS pH 7.4, 30 min at 37 °C, on HEK293 cells stably overexpressing full-length human GFRAL; untransfected HEK293 cells as control; conditions: one partner purified
T2 construct: GDNF family receptor alpha-like (GFRAL), human, full-length, overexpressed on HEK293 cells; also called GFRAL–HEK293 cells; GFRAL-expressing HEK293 cells; source: HEK293 cells stably overexpressing human GFRAL, bought: Creative Biogene (CSC-SC006226)
T2 sequence (looked up): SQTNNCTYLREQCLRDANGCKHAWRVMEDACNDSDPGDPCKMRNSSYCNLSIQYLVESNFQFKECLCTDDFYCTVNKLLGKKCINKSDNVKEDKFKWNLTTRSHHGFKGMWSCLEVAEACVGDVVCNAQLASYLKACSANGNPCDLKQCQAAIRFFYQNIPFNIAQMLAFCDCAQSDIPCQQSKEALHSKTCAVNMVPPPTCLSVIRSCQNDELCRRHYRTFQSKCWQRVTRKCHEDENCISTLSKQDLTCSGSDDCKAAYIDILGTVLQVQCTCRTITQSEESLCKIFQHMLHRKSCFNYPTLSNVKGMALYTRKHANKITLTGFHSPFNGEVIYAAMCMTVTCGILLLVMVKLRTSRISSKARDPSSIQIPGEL

[5] = target: T1, Recombinant His-tagged human GFRAL …; experiment: SPR; GFRAL (S19-E351) immobilised by amine coupling (EDC/NHS) on a high-capacity carboxyl sensor (Nicoya OpenSPR); peptides or GDF15 as analyte; HBSS pH 7.4 running buffer without BSA; 20 uL/min; conditions: both partners purified
[6] = GRASP 100 nmol/kg IP BID alone or with Ondansetron 2 mg/kg IP, no cisplatin
[7] = GRASP 100 nmol/kg IP BID, Ondansetron 2 mg/kg IP, cisplatin 6 mg/kg IP, n = 10–16 per group

Molecule: GDF15 (from UniProt Q99988)
- Kd [1]: 1 nM

Molecule: CC[C@H](C)[C@H](NC(=O)[C@H](CC(C)C)NC(=O)[C@H](CCC(=O)O)NC(=O)[C@H](CCC(=O)O)NC(=O)[C@H](CCCCN=[N+]=[N-])NC(=O)[C@@H](N)[C@@H](C)O)C(=O)N[C@@H](Cc1c[nH]cn1)C(=O)N[C@@H](C)C(=O)N[C@@H](Cc1c[nH]cn1)C(=O)N[C@@H](C)C(=O)N[C@@H](CC(=O)O)C(=O)N1CCC[C@H]1C(=O)N[C@@H](CCSC)C(=O)N[C@H](C(=O)N[C@@H](CC(C)C)C(=O)N[C@H](C(=O)N[C@@H](CCC(N)=O)C(=O)N[C@@H](CCCCN)C(=O)N[C@H](C(=O)N[C@@H](CC(=O)O)C(=O)N[C@H](C(=O)NCC(=O)N[C@H](C(=O)N[C@@H](CO)C(=O)N[C@@H](CC(C)C)C(=O)N[C@@H](CCC(N)=O)C(=O)N[C@H](C(=O)N[C@@H](Cc1ccc(O)cc1)C(=O)N[C@@H](CC(=O)O)C(N)=O)[C@@H](C)O)C(C)C)[C@@H](C)O)[C@@H](C)O)[C@@H](C)CC)C(C)C [GRASP] (H-T[Lys(N3)]EELIHAHADPMVLIQKTDTGVSLQTYD-NH2)
- impact on food or kaolin intake in healthy rats [2, 6]: had no impact on food or kaolin intake in healthy rats
- tolerability in healthy rats [2, 6]: well-tolerated

Molecule: Cc1nccn1CC1CCc2c(c3ccccc3n2C)C1=O (centres unmarked) [Ondansetron]
- effect on cisplatin-induced anorexia [2, 7]: Neither Ond (2 mg/kg of IP) nor GRASP (100 nmol/kg of IP [BID]) alone had any impact
- effect on cisplatin-induced kaolin intake [2, 7]: significantly reduced cisplatin-induced kaolin intake

B1: Biotinylated GRASP (peptide)
peptide: T[K‑azido](PEG2‑C4‑alkyne‑biotin)EELIHAHADPMVLIQKTDTGVSLQTYD
notes: GRASP peptide as m1, biotin on the azido-lysine at position 2; Held on the sensor through biotin-streptavidin (His-tagged streptavidin on a biotin sensor); also called biotin-conjugated GRASP; biotin-GRASP; source: synthetic peptide, conjugated to PEG2-C4-alkyne biotin, RP-HPLC purified (95%)
- Kd [3]: 74.1 nM

B2: GRASPCy5 (peptide)
peptide: TKEELIHAHADPMVLIQKTDTGVSLQTYD
modifications: not fully specified (residue 2); printed as T(K-azido)EELIHAHADPMVLIQKTDTGVSLQTYD
notes: GRASP peptide as m1, sulfo-Cy5 on the azido-lysine at position 2; also called sulfo-Cy5 GRASP conjugate; GRASP(K2)–fluorophore conjugate; source: synthetic peptide, conjugated to DBCO-Cy5, RP-HPLC purified (95%)
- Kd [4]: 8.98 nM

B3: GRASP (K2-azido-modified 29-amino acid peptide) (peptide)
peptide: T[K‑azido]EELIHAHADPMVLIQKTDTGVSLQTYD
notes: designed peptide with GDF15-like loop regions; printed as T(K-azido)[residues removed]; In-house synthesis was on a Rink amide resin, which would give a C-terminal amide; also called GFRAL receptor antagonist; unlabeled GRASP; source: synthetic peptide (Genscript or in-house solid-phase synthesis), HPLC purified to >95%
- Kd [5]: 179000 nM

Source: paper PMC10461225, “Creation of a Peptide Antagonist of the GFRAL–RET Receptor Complex for the Treatment of GDF15-Induced Malaise” (Journal of Medicinal Chemistry, 2023)
